Laboratory results published in publication PMC3784471 (PLoS Pathogens, 2013).
Ends that are not written are not given here.

Target: T1, Hendra virus nucleoprotein C-terminal domain N_(TAIL) (residues 401-532) (Hendra virus, UniProt O89339 401-532)
T1 sequence: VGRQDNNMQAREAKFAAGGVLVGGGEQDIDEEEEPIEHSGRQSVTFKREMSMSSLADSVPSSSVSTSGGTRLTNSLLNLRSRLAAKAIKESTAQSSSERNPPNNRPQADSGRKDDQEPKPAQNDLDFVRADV
Test: NMR titration; […]) ([…]); 298 K; […], pH 6.0
Details: both partners purified

B1: Hendra virus phosphoprotein X domain (XD, residues 654-707), 13C,15N labeled, without hexahistidine tag (domain or fragment)
chain: ADDASKDVVRTMIRTHIKDRELRSELMDYLNRAETDEEVQEVANTVNDIIDGNI
modifications: also: 13C,15N labeled
binding result: binds
